Data taken from patent publication US20260184775A1 (Chugai, published 2026).
Residue numbers refer to the chain shown, from its start. Blank lines part the entries; values can stand above or below the binder they belong to.

Assays:
[1] = molecular target: T1, recombinant human latent TGF-beta 1 (Flag-tagged human latent TGF-beta 1) (human, UniProt P01137 34-390); assay: SPR, Biacore T200, 37 C, pH 7.4; antibody captured by anti-human Fc, latent TGF-beta 1 at 12.5 to 200 nM as analyte; 1:1 model
T1 construct: Latent form: LAP plus mature TGF-beta 1; also called human recombinant latent TGF-beta 1; SLC
T1 sequence (P01137 other isoform, or with tags, fused parts or gaps limits assumed): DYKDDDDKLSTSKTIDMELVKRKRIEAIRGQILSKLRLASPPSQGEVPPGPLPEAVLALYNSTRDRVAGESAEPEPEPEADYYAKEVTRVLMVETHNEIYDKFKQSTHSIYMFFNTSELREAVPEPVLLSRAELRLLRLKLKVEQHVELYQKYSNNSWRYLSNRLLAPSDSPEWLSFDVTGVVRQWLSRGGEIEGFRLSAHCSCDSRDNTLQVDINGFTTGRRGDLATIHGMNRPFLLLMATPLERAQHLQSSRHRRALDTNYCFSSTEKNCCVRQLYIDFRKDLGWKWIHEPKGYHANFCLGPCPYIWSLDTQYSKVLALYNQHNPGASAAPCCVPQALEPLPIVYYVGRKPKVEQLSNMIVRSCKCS
Procedure: (§1) The affinities of anti-latent TGF-beta 1 antibodies binding to human latent TGF-beta 1 at pH 7.4 were determined at 37 degrees C. using Biacore T200 instrument (GE Healthcare). Anti-human Fc (GE Healthcare) was immobilized onto all flow cells of a CM4 sensor chip using an amine coupling kit (GE Healthcare). All antibodies and analytes were prepared in ACES pH 7.4 containing 20 mM ACES, 150 mM NaCl, 1.2 mM CaCl₂, 0.05% Tween 20, and 0.005% NaN₃. Each antibody was captured onto the sensor surface by anti-human Fc. Antibody capture levels were aimed at 300 resonance unit (RU). Recombinant human latent TGF-beta 1 was injected at a concentration of 12.5 to 200 nM prepared by two-fold serial dilution, followed by dissociation. Sensor surface was regenerated each cycle with 3M MgCl₂.

[2] = molecular target: T1, recombinant human latent TGF-beta 1 …; assay: SPR, Biacore T200, 37 C, pH 7.4; antibody captured by anti-human Fc; 1:1 model; footnote: slow off rate <1E-05, KD cannot be uniquely determined
Procedure: as §1

[3] = molecular target: T2, recombinant mouse latent TGF-beta 1 (Flag-tagged mouse latent TGF-beta 1) (mouse, UniProt P04202 34-390); assay: SPR, Biacore 8K, 37 C, pH 7.4; antibody captured by anti-human Fc, latent TGF-beta 1 as analyte; 1:1 model
T2 construct: also called mouse recombinant latent TGF-beta 1
T2 sequence (P04202 other isoform, or with tags, fused parts or gaps limits assumed): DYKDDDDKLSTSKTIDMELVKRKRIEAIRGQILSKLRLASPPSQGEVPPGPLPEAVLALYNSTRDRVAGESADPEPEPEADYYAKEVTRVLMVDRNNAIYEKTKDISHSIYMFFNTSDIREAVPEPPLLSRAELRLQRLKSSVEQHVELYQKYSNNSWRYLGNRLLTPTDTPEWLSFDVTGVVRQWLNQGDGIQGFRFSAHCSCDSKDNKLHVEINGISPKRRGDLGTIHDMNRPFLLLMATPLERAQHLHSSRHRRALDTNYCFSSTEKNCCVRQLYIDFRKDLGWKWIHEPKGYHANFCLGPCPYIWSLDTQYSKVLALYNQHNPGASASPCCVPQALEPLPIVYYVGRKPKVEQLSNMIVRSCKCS

[4] = molecular target: T1, recombinant human latent TGF-beta 1 …; assay: as above
mouse mature TGF-beta 1 = molecular target: T3, mouse mature TGF-beta 1 (mouse, UniProt P04202 279-390); assay: ELISA on plate-coated mouse mature TGF-beta 1, detection with anti-human IgG-HRP
T3 construct: mature; also the active TGF-beta 1 released in the mouse PBMC co-culture assay
T3 sequence (P04202 279-390 limits assumed): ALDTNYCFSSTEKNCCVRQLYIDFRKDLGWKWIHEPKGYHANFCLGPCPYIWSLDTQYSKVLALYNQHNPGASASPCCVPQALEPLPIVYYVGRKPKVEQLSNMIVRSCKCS
Procedure: 384-well plate was coated with mouse mature TGF-beta 1 for overnight at 4 degrees C. After four times washing with TBS-T, the plate was blocked with blocking buffer (1×TBS/tween20+0.5% BSA+1× Block ace) for 2 hours at room temperature. After four times washing with TBS-T, antibody solution was added into the plate and incubated for 2 hours at room temperature. After four times washing with TBS-T, a diluted secondary antibody (goat anti-human IgG-HRP Santa Cruz Cat.sc-2453) was add into the plate and incubated for 1 hour at room temperature. After four times washing with TBS-T, TMB solution was added into the plate and incubated for 15 min at room temperature, then 1N sulfuric acid was added to stop the reaction. The absorbance was measured at 450 nm/570 nm.

[5] = molecular target: T2, recombinant mouse latent TGF-beta 1 …; assay: SPR, Biacore T200, 37 C, pH 7.4; antibody captured by anti-human Fc, latent TGF-beta 1 at 3.125 to 50 nM as analyte; 1:1 model
Procedure: (§2) The affinities of anti-latent TGF-beta 1 antibodies binding to human or mouse latent TGF-beta 1 at pH 7.4 were determined at 37 degrees C. using Biacore T200 instrument (GE Healthcare). Anti-human Fc (GE Healthcare) was immobilized onto all flow cells of a CM4 sensor chip using an amine coupling kit (GE Healthcare). All antibodies and analytes were prepared in ACES pH 7.4 containing 20 mM ACES, 150 mM NaCl, 1.2 mM CaCl₂), 0.05% Tween 20, 0.005% NaN3. Each antibody was captured onto the sensor surface by anti-human Fc. Antibody capture levels were aimed at 300 resonance unit (RU). For TBA865 and TBA873, recombinant human or mouse latent TGF-beta 1 was injected at 12.5 to 200 nM prepared by two-fold serial dilution, followed by dissociation. For TBS139 and TBS182, recombinant human or mouse latent TGF-beta 1 was injected at 3.125 to 50 nM prepared by two-fold serial dilution, followed by dissociation. The sensor surface was regenerated each cycle with 3M MgCl2.

[6] = molecular target: T1, recombinant human latent TGF-beta 1 …; assay: SPR, Biacore T200, 37 C, pH 7.4; antibody captured by anti-human Fc, latent TGF-beta 1 injected at 3.125 to 50 nM
Procedure: as §2

[7] = molecular target: T4, human cell surface latent TGF-beta 1 (human, UniProt P01137 30-390); assay: FACS on FreeStyle 293-F cells, PE-labelled secondary antibody, MFI
T4 construct: also called cell surface human latent TGF-beta 1
T4 sequence (P01137 30-390): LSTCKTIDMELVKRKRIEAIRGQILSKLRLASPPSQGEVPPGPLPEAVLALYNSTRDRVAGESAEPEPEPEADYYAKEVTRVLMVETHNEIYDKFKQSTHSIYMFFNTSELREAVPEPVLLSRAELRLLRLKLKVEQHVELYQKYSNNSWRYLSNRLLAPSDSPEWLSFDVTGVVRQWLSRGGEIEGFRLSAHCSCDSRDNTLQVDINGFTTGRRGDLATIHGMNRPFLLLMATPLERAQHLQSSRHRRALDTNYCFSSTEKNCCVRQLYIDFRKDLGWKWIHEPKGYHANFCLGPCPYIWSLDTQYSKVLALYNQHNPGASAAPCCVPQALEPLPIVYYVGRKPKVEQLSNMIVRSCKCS
Procedure: (§3) Anti-latent TGF-beta 1 antibodies were incubated with each cell line for 30 minutes at 4 degrees C. and washed with FACS buffer (2% FBS, 2 mM EDTA in PBS). Anti-KLH antibody (IC17) was used for a negative control antibody. Goat F(ab′)2 anti-Human IgG, Mouse ads-PE (Southern Biotech, Cat. 2043-09) or Goat F(ab′)2 anti-Mouse IgG(H+L), Human Ads-PE (Southern Biotech, Cat. 1032-09) was then added and incubated for 30 minutes at 4 degrees C. and washed with FACS buffer. Data acquisition was performed on an FACS Verse (Becton Dickinson), followed by analysis using FlowJo software (Tree Star) and GraphPad Prism software (GraphPad).

[8] = molecular target: T5, mouse cell surface latent TGF-beta 1 (mouse, UniProt P04202 30-390); assay: FACS on Ba/F3 cells, PE-labelled secondary antibody, MFI
T5 construct: Endogenous latent TGF-beta 1 (forming LLC) on Ba/F3 cells, and the latent TGF-beta 1 of mouse PBMC in the co-culture assay; also called cell surface mouse latent TGF-beta 1; latent TGF-beta 1 on Ba/F3 cells
T5 sequence (P04202 30-390): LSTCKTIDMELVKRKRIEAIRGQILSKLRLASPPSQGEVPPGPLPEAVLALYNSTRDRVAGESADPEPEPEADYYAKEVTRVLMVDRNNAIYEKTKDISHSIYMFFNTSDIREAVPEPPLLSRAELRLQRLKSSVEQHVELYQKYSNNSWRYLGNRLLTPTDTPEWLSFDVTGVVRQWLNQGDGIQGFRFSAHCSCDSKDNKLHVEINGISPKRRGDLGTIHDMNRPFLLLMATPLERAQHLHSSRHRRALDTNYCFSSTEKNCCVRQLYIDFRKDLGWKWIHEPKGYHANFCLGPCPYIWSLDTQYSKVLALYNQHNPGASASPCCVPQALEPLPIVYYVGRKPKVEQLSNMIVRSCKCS
Procedure: as §3

[9] = molecular target: T2, recombinant mouse latent TGF-beta 1 …; assay: SPR, Biacore T200, 37 C, pH 7.4; antibody captured by anti-human Fc, latent TGF-beta 1 at 12.5 to 200 nM as analyte; 1:1 model
Procedure: as §2

[10] = molecular target: T1, recombinant human latent TGF-beta 1 …; assay: as above; remark: listed apart in the source
Procedure: as §2

B2: TBA1172 (antibody, human IgG1, kappa, V domains shown)
VH: QSVEESGGRLVTPGTPLTLTCTVSGFSLSNYAMGWVRQAPGKGLEWIGIISSGGVSYYASWARGRFTISKTSTTVDLKITSPTPEDTGTYFCARGQVPSSDTYYVPFNLWGPGTLVTVSS
VL: DIAMTQTPASVEAAVGGTVTIKCQASQSIGSDLAWYQQKPGQPPKLLIYRASTLASGVPLRFKGSGSGTQFTLTISDLECADAATYYCQTYYFTISSYGAFGGGTKVEIKR
notes: also called TBA1172aa-F1332m; TBS1172
- Kd [3]: 0.0919 nM
- koff [3]: 9.13e-05 s⁻¹
- kon [3]: 994000 M⁻¹ s⁻¹
- Kd [4]: 88 nM
- koff [4]: 0.0229 s⁻¹
- kon [4]: 261000 M⁻¹ s⁻¹
- binding result (mouse mature TGF-beta 1): no binding (tested: 10 µg/mL)

B4: TBA0946 (antibody, human IgG1, kappa, V domains shown)
VH: QSLEESGGRLVTPGTPLTLTCTTSGFSLNNYYMNWVRQAPGKGLEWIGLTDNDGTTYYANWAKGRFTVSKTSTTVDLKMTSPTTEDTATYFCVRDAGYSRNLWGPGTLVTVSS
VL: AYDMTQTPASVEVAVGGTVTIKCQASQSISSSLAWYQQKPGQPPKQLIYRASTLASGVSSRFKGSGSGTQFTLTISGVECADAATYYCQQTYSWSGLDNVFGGGTKVEIKR
notes: also called TBA0946bb-F1332m; TBA946
- Kd [3]: 0.0793 nM
- koff [3]: 7.66e-05 s⁻¹
- kon [3]: 966000 M⁻¹ s⁻¹
- binding result (mouse mature TGF-beta 1): no binding (tested: 10 µg/mL)

B5: TBA0947 (antibody, human IgG1, kappa, V domains shown)
VH: QSVEESGGRLVTPGTPLTLTCTVSGFSLSSYAMNWVRQAPGKGLEWIGYIYTSGTTYHANWARGRFTISKTSTTVDLKMTSLTTEDTATYFCARGTGISDYYYWVMDLWGPGTLVTVSS
VL: AFELTQTPSSVEAAVGGTVTIKCQASQSISTYLAWYQQRPGQPPKLLIYKASTLASGVPSRFKGSGSGTDFTLTISDLECADAATYFCQSYCDGDSVGFGGGTKVEIKR
notes: also called TBA0947gg-F1332m; TBA947
- Kd [3]: 0.0419 nM
- koff [3]: 1.07e-05 s⁻¹
- kon [3]: 256000 M⁻¹ s⁻¹
- Kd [4]: 7.65 nM
- koff [4]: 0.00224 s⁻¹
- kon [4]: 292000 M⁻¹ s⁻¹
- binding result (mouse mature TGF-beta 1): no binding (tested: 10 µg/mL)

B8: TBA865 (antibody, human IgG1, kappa, V domains shown)
VH: QSLEESGGRLVTPGGSLTLTCTVSGIDLSSYAMGWVRQAPGKGLEYIGIISSSGLTDYASWVNGRFTISKTSTTVDLKITSPTTEDTATYFCARIYDLWGPGTLVTVSS
VL: DIVMTQTPASVEAAVGGTLTIKCQASQSISDQLSWYQQKPGQPPKLLIYRASTLESGVPSRFKGSGSGTQFTLTISDLECADAATYYCQSYYYSYSSTYGNTFGGGTKVEIKR
- binding result [7]: no binding
- binding result [8]: no binding
- Kd [9]: 0.158 nM
- koff [9]: 5.37e-05 s⁻¹
- kon [9]: 341000 M⁻¹ s⁻¹
- Kd [10]: 0.16 nM
- koff [10]: 6.55e-05 s⁻¹
- kon [10]: 410000 M⁻¹ s⁻¹

Now from value to binder:

- kon [1]: 402000 M⁻¹ s⁻¹
- Kd [2]: ≤ 0.00738 nM
- koff [2]: < 1e-05 s⁻¹
B1: TBA1314 (antibody, human IgG1, kappa, V domains shown)
VH: QSVEESGGRLVTPGTPLTLTCTVSGFSLSNYAMTWVRQAPGKGLEWIGVIYAGGNTYYANWVNGRFTISKTSTTVDLKITSPTTEDTATYFCARDVGSSSSGVYFNIWGPGTLVTVSS
VL: AYDMTQTPASVEVAVGGTVTIKCQASQSIGSRLAWYQQKPGQPPKLLIYDASTLASGVSSRFKGSGSGTEFTLTISGVECADAATYYCQQDYSYRHVDNIFGGGTKVEIKR
notes: also called TBA1314aa-F1332m

- Kd [5]: 0.0225 nM
- koff [5]: 3.96e-05 s⁻¹
- kon [5]: 1.76e+06 M⁻¹ s⁻¹
- binding result [6]: no binding (tested: 50 nM)
B3: TBS139 (antibody, mouse IgG1, kappa, V domains shown)
VH: QSLEESGGDLVKPGASLTLTCTASGFSFSSYWMSWVRQAPGKGLEYIGMISIIGTTYYASWAKGRFTISKTSSTTVTLQVTSLTAADTATYFCARGYVSNSNYWGLWGPGTLVTVSS
VL: AYDMTQTPASVEVAVGGTVTIKCQASQNIGSNLAWYQQKPGQPPKLLIYYASDLASGVPSRFKGSGSGTRYTLTISGVQCDDAATYYCQQYWSSSNVDNTFGGGTEVVVKR

- Kd [1]: 0.0389 nM
- koff [1]: 2.31e-05 s⁻¹
- kon [1]: 593000 M⁻¹ s⁻¹
B6: TBA1300 (antibody, human IgG1, kappa, V domains shown)
VH: QEQLKESGGGLVTPGGTLTLTCTVSGFSLSNYDMSWVRQAPGKGLEWIGAIYTAGTTSYASWAKGRFTISKTSTTVDLKITSPTTEDTATYFCARGGSSFFYYAAHNIWGPGTLVTVSS
VL: AYDMTQTPASVEAAVGGTVTIKCQASQSIGSNLAWYQQKPGQPPKLLIYDASKLPSGVPSRFKGSGSGTEFTLTISDLECDDAATYYCQQYYTTSDVDNTFGGGTKVEIKR
notes: also called TBA1300ff-F1332m

- Kd [1]: 0.0188 nM
- koff [1]: 1.63e-05 s⁻¹
- kon [1]: 867000 M⁻¹ s⁻¹
B7: TBA1277 (antibody, human IgG1, kappa, V domains shown)
VH: QSVEESGGRLVTPGTPLTLTCTASGFSLSNYDMSWVRQAPGKGLEWIGNIHTADTTSYARWAKGRFTISKTSTTVDLKITSPTSEDTATYFCARGGSDFFYYEPYNIWGPGTLVTVSS
VL: AYDMTQTPASVEAAVGGTVTVRCQASESIGSRLAWYQQKVGQPPKLLIYDASTLASGVSSRFKGSGSGTEFTLTISDLECDDAATYYCQQYYTSNNVENTFGGGTKVEIKR
notes: also called TBA1277cc-F1332m

- binding result [7]: no binding
- binding result [8]: no binding
- Kd [9]: 0.276 nM
- koff [9]: 5.15e-05 s⁻¹
- kon [9]: 187000 M⁻¹ s⁻¹
- Kd [10]: 0.292 nM
- koff [10]: 6.72e-05 s⁻¹
- kon [10]: 230000 M⁻¹ s⁻¹
B9: TBA873 (antibody, human IgG1, kappa, V domains shown)
VH: B8 VH with S52N, P82L
VL: B8 VL with L19V, D31N, E55A, P59S, D82A, Y95V

- Kd [5]: 0.0482 nM
- koff [5]: 5.32e-05 s⁻¹
- kon [5]: 1.1e+06 M⁻¹ s⁻¹
- binding result [6]: no binding (tested: 50 nM)
B10: TBS182 (antibody, V domains shown)
VH: QSLEESGGDLVKPGASLTLTCTASGFSFSRSYYMCWVRQAPGKGLEWIACIYGGSSGSTWYASWAKGRFTISKTSSTTVTLQMTSLTAADTATYFCARDIGNYYRWWGPGTLVTVSS
VL: AVVLTQTTSPVSAPVGGTVTIKCQASKNIYSLLAWYQQKPGQPPKLLIYDASTLASGVPSRFKGSGSGTQFTLTISDLECADAATYYCQSYYDSSSSADLSTFGGGTEVVVKR
